Results reported in PMC3800017.

B1: IAPP A1 (dsDNA)
DNA 1: GGAAATTAATGACAGA
DNA 2: TCTGTCATTAATTTCC
B2: Insulin A3 (dsDNA)
DNA 1: AGACTCTAATGACCCG
DNA 2: CGGGTCATTAGAGTCT
B3: Insulin E1 (dsDNA)
DNA 1: AGCCATCTGCCGACCC
DNA 2: GGGTCGGCAGATGGCT
B4: IAPP A2 (dsDNA)
DNA 1: ATGAGTTAATGTAATA
DNA 2: TATTACATTAACTCAT
B5: Insulin A1 (dsDNA)
DNA 1: AGGCCCTAATGGGCCA
DNA 2: TGGCCCATTAGGGCCT

Target: Pdx1 homeodomain (Pdx1-HD) (Homo sapiens, UniProt P52945 146-206)
Experiment: ITC

Chain of Pdx1 homeodomain (Pdx1-HD) (P52945 146-206): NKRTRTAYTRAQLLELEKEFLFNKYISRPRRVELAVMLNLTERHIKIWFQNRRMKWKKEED

| Binder | Kd |
| --- | --- |
| B1 | 22 ± 5 nM |
| B2 | 4 ± 1 nM |
| B3 | 1300 ± 300 nM |
| B4 | 27 ± 7 nM |
| B5 | 7 ± 2 nM |
